In paper PMC8395186, “Structural Basis of Inhibition of DCLK1 by Ruxolitinib” (International Journal of Molecular Sciences, 2021):

Molecular target: the molecule itself
Experiment: crystal structure; sitting-drop vapor diffusion at 23 °C; co-crystallised with AMP-PNP, then soaked with ruxolitinib; two molecules per asymmetric unit; interface analysed with the PISA server

B1: Doublecortin-like kinase 1 (DCLK1) kinase domain (domain or fragment, UniProt O15075 372-649, looked up)
chain: GEEVSEEGFQIPATITERYKVGRTIGDGNFAVVKECVERSTAREYALKIIKKSKCRGKEHMIQNEVSILRRVKHPNIVLLIEEMDVPTELYLVMELVKGGDLFDAITSTNKYTERDASGMLYNLASAIKYLHSLNIVHRDIKPENLLVYEHQDGSKSLKLGDFGLATIVDGPLYTVCGTPTYVAPEIIAETGYGLKVDIWAAGVITYILLCGFPPFRGSGDDQEVLFDQILMGQVDFPSPYWDNVSDSAKELITMMLLVDVDQRFSAVQVLEHPWVND
notes: Doublecortin-like kinase 1 (DCLK1), kinase domain, residues Gly372-Asp649; residues 376-648 are resolved in the structure; Non-phosphorylated; Crystallised with AMP-PNP, then soaked with ruxolitinib; Two molecules per asymmetric unit form the dimer; also called DCLK1KD; source: E. coli Rosetta2(DE3)pLysS, purified (Ni-NTA, TEV cleavage, SEC); not shown: His6, N-terminal, cleaved
- stoichiometry N: 2
